In patent publication US20240343781A1:

How the values were obtained:
SARS-CoV-2 Spike = assay: SPR
SHC014 = assay: ELISA
RmYN02 = assay: ELISA
Rf1 = assay: ELISA
WIV1 = assay: ELISA
GX-Pangolin = assay: ELISA
SARS-CoV = assay: ELISA
RaTG13 = assay: ELISA
BM-4831 = assay: ELISA
Yunnan2011 = assay: ELISA
Rs4081 = assay: ELISA
BtKY72 = assay: ELISA
[1] = target: SARS-CoV Spike (SARS-CoV) (UniProt P59594); assay: SPR

Substance	Kd (SARS-CoV-2 Spike)	EC50 (SHC014)	EC50 (RmYN02)	EC50 (Rf1)	EC50 (WIV1)	EC50 (GX-Pangolin)	EC50 (SARS-CoV)	EC50 (RaTG13)	EC50 (BM-4831)	EC50 (Yunnan2011)	EC50 (Rs4081)	EC50 (BtKY72)	Kd [1]
DH1047	1.06 pM	0.003 µg/mL	0.01 µg/mL	> 10 µg/mL	0.003 µg/mL	0.006 µg/mL	0.009 µg/mL	0.003 µg/mL	0.002 µg/mL	0.011 µg/mL	0.013 µg/mL	0.003 µg/mL	
ADG-2	0.983 pM	0.003 µg/mL	> 10 µg/mL	> 10 µg/mL	0.005 µg/mL	0.089 µg/mL	0.002 µg/mL	> 10 µg/mL	0.711 µg/mL	> 10 µg/mL	> 10 µg/mL	0.005 µg/mL	
REGN10985	8.72 pM	0.003 µg/mL	> 10 µg/mL	> 10 µg/mL	0.003 µg/mL	3.3 µg/mL	> 10 µg/mL	> 10 µg/mL	0.72 µg/mL	> 10 µg/mL	> 10 µg/mL	0.001 µg/mL	
COVA1-16	1.29 pM	0.049 µg/mL	> 10 µg/mL	7.07 µg/mL	> 10 µg/mL	0.043 µg/mL	> 10 µg/mL	0.614 µg/mL	> 10 µg/mL	> 10 µg/mL	> 10 µg/mL	> 10 µg/mL	19500 pM
S2H97	4.53 pM	> 10 µg/mL	0.011 µg/mL	0.005 µg/mL	0.54 µg/mL	0.026 µg/mL	0.015 µg/mL	0.008 µg/mL	0.009 µg/mL	0.124 µg/mL	0.009 µg/mL	0.006 µg/mL	
S2X259	0.895 pM	0.007 µg/mL	> 10 µg/mL	> 10 µg/mL	0.005 µg/mL	0.035 µg/mL	0.016 µg/mL	> 10 µg/mL	0.005 µg/mL	> 10 µg/mL	2.29 µg/mL	0.004 µg/mL	
S309	1.94 pM		> 10 µg/mL	> 10 µg/mL	0.023 µg/mL	0.052 µg/mL	0.011 µg/mL	> 10 µg/mL	0.286 µg/mL	> 10 µg/mL	> 10 µg/mL	> 10 µg/mL	
